The values that follow come from patent US20260184777A1 (BEIJING SUNGEN BIOMEDICAL TECHNOLOGY, published 2026).

T1: human S100A8/A9 heterodimeric antigen, His-tagged (hS100A8/A9-His) (human, UniProt P05109 1-93; P06702 1-114)
T1 sequence 1: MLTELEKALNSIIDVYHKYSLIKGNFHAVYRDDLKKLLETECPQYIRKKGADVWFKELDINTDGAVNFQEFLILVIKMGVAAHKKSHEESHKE
T1 sequence 2: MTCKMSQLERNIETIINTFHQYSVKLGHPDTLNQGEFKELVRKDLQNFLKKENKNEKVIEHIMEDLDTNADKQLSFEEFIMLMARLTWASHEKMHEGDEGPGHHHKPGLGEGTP

B1: CM-50 (antibody, human IgG4 S228P, lambda, V domains shown)
VH: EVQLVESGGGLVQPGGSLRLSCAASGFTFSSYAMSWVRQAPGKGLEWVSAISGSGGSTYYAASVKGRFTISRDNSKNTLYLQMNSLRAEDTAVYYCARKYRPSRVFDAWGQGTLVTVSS
VL: SYELTQPPSVSVAPGQTARITCSGDALGDKYASWYQQKPGQAPVLVIYEDAKRPSGIPERFSGSNSGNTATLTISGTQAEDEADYYCQSNDADAVWVFGGGTKLTVLG
B2: CM-62 (antibody, human IgG4 S228P, lambda, V domains shown)
VH: EVQLVESGGGLVQPGGSLRLSCAASGFTFSSYVMSWVRQAPGKGLEWVSAISGSGGSTYYAASVKGRFTISRDNSKNTLYLQMNSLRAEDTAVYYCARKYRPSRVFDAWGQGTLVTVSS
VL: B1 VL with K52R
B3: CM-71 (antibody, human IgG4 S228P, lambda, V domains shown)
VH: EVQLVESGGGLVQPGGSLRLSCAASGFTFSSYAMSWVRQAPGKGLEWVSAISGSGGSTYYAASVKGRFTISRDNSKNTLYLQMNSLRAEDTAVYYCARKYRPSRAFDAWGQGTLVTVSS
VL: B1 VL with Y31F, A92I
B4: CM-65 (antibody, human IgG4 S228P, lambda, V domains shown)
VH: B2 VH with F29Y, V33A
VL: B1 VL with E49Q, A92I
B5: CM-72 (antibody, human IgG4 S228P, lambda, V domains shown)
VH: B2 VH with F29Y, V33A, V105A
VL: B1 VL with Y31F, A92I
B6: CM-60 (antibody, human IgG4 S228P, lambda, V domains shown)
VH: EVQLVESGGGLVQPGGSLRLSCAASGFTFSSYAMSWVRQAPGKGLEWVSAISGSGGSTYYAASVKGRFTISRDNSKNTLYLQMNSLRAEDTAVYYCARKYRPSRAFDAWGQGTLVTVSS
VL: B1 VL with A92I
B7: CM-70 (antibody, human IgG4 S228P, lambda, V domains shown)
VH: B2 VH with V33A, A61H, V105A
VL: B1 VL with Y31F
B8: CM-57 (antibody, human IgG4 S228P, lambda, V domains shown)
VH: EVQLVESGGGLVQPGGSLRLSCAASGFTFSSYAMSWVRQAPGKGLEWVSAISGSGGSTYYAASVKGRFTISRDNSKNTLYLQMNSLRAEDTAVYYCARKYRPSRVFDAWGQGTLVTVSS
VL: B1 VL with Y31F, A92I
B9: CM-56 (antibody, human IgG4 S228P, lambda, V domains shown)
VH: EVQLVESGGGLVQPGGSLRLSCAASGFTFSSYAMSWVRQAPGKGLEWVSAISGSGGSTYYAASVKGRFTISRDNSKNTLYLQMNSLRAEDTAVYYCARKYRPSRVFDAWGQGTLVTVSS
VL: B1 VL with A92I
B10: CM-52 (antibody, human IgG4 S228P, lambda, V domains shown)
VH: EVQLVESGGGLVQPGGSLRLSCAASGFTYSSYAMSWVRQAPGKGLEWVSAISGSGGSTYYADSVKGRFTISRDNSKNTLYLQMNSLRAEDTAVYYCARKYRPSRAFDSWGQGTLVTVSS
VL: B1 VL with A92I, A94S
B11: CM-54 (antibody, human IgG4 S228P, lambda, V domains shown)
VH: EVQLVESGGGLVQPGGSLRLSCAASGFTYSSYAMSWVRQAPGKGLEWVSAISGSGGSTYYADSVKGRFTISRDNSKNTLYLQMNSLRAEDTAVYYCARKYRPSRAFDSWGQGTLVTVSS
VL: B1 VL with Y31F, A51S, A92I, A94S
B12: CM-76 (antibody, human IgG4 S228P, lambda, V domains shown)
VH: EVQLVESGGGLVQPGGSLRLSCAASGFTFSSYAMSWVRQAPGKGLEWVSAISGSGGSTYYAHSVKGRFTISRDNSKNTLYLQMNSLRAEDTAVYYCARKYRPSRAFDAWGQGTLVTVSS
VL: B1 VL with Y31F, A92V
B13: CM-41 (antibody, human IgG4 S228P, lambda, V domains shown)
VH: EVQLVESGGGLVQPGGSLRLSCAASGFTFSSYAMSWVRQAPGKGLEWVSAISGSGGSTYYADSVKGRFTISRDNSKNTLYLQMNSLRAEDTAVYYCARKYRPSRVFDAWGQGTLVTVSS
VL: B1 VL with A51S
B14: CM-74 (antibody, human IgG4 S228P, lambda, V domains shown)
VH: B2 VH with V33A, Y59W, F106Y
VL: B1 VL with K52R, A92I
B15: CM-49 (antibody, human IgG4 S228P, lambda, V domains shown)
VH: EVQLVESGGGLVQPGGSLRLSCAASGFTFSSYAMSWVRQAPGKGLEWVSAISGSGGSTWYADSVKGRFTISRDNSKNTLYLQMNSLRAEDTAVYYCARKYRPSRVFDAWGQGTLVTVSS
VL: B1 VL with A92I, A94S
B16: CM-75 (antibody, human IgG4 S228P, lambda, V domains shown)
VH: B2 VH with V33A, A61V, V105A
VL: B1 VL with Y31F, E49Q
B17: CM-64 (antibody, human IgG4 S228P, lambda, V domains shown)
VH: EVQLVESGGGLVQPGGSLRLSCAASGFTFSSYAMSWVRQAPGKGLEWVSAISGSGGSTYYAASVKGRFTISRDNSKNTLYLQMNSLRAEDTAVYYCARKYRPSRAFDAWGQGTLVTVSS
VL: B1 VL with Y31F
B18: CM-73 (antibody, human IgG4 S228P, lambda, V domains shown)
VH: B2 VH with F29Y, V33A, V105A
VL: B1 VL with E49Q, A92I
B19: CM-47 (antibody, human IgG4 S228P, lambda, V domains shown)
VH: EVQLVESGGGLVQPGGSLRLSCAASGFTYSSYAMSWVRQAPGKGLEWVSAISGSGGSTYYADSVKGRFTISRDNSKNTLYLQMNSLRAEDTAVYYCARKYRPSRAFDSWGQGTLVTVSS
VL: B1 VL with A51S, A92I, A94S
B20: CM-46 (antibody, human IgG4 S228P, lambda, V domains shown)
VH: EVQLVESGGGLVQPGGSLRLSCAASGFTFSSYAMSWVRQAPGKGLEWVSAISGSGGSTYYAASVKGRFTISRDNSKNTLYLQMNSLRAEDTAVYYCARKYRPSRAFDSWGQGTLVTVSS
VL: B1 VL with Y31F, A51S, A94S
B21: CM-66 (antibody, human IgG4 S228P, lambda, V domains shown)
VH: B2 VH with F29Y, V33A, V105A
VL: B1 VL with A92I
B22: CM-67 (antibody, human IgG4 S228P, lambda, V domains shown)
VH: B2 VH with Y32H, V33A, Y100F
VL: B1 VL with K52R
B23: CM-59 (antibody, human IgG4 S228P, lambda, V domains shown)
VH: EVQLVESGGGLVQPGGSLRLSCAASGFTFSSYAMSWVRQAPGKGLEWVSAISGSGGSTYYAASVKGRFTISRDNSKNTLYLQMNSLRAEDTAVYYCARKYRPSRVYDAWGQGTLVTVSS
VL: B1 VL with A92I
B24: CM-45 (antibody, human IgG4 S228P, lambda, V domains shown)
VH: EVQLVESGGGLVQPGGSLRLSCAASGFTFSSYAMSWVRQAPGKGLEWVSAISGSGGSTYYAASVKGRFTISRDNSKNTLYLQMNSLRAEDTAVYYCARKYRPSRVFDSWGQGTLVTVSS
VL: B1 VL
B25: CM-63 (antibody, human IgG4 S228P, lambda, V domains shown)
VH: B2 VH with V33A, Y59W
VL: B1 VL with A92V
B26: CM-81 (antibody, human IgG4 S228P, lambda, V domains shown)
VH: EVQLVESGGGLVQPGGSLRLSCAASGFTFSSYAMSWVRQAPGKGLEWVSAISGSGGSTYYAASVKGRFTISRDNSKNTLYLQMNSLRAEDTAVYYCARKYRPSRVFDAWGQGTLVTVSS
VL: B1 VL with P54D
B27: CM-79 (antibody, human IgG4 S228P, lambda, V domains shown)
VH: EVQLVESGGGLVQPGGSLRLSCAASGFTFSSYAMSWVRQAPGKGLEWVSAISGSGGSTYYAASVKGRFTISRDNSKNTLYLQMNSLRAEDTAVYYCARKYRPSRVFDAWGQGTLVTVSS
VL: B1 VL with P54N
B28: CM-44 (antibody, human IgG4 S228P, lambda, V domains shown)
VH: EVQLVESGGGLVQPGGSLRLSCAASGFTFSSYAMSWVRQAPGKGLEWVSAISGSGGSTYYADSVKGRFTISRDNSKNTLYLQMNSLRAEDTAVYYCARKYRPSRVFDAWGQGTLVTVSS
VL: B1 VL
B29: CM-69 (antibody, human IgG4 S228P, lambda, V domains shown)
VH: B2 VH with V33A, Y59W, V105A
VL: B1 VL with E49Q
B30: CM-61 (antibody, human IgG4 S228P, lambda, V domains shown)
VH: B2 VH with F29Y, V33A
VL: B1 VL with E49Q
B31: CM-77 (antibody, human IgG4 S228P, lambda, V domains shown)
VH: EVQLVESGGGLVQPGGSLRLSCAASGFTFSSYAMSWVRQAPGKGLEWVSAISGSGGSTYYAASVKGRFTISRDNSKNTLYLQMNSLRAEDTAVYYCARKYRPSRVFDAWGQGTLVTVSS
VL: B1 VL with K52N
B32: CM-53 (antibody, human IgG4 S228P, lambda, V domains shown)
VH: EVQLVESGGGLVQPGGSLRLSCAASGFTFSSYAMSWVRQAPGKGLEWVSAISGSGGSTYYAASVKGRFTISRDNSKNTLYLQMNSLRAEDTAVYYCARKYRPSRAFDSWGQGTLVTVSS
VL: B1 VL
B33: CM-78 (antibody, human IgG4 S228P, lambda, V domains shown)
VH: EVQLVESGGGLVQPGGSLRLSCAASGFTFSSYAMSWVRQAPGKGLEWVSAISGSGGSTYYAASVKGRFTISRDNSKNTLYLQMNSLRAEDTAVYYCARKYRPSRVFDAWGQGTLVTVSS
VL: B1 VL with K52H
B34: CM-80 (antibody, human IgG4 S228P, lambda, V domains shown)
VH: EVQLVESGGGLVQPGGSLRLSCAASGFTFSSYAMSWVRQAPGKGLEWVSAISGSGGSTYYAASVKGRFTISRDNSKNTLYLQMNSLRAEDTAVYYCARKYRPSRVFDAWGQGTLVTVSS
VL: B1 VL with P54Q
B35: CM-68 (antibody, human IgG4 S228P, lambda, V domains shown)
VH: B2 VH with V33A, M34I, V105A
VL: B1 VL with A92L
B36: CM-40 (antibody, human IgG4 S228P, lambda, V domains shown)
VH: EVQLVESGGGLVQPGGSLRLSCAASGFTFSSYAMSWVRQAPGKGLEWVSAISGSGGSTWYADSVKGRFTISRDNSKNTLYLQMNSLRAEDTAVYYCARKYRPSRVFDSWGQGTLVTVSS
VL: B1 VL with A51S, A92V, A94S
B37: CM-55 (antibody, human IgG4 S228P, lambda, V domains shown)
VH: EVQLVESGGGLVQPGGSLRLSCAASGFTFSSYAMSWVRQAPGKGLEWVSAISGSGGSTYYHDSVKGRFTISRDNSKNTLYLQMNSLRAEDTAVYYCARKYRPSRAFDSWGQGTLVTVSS
VL: B1 VL with Y31F, A51S
B38: CM-43 (antibody, human IgG4 S228P, lambda, V domains shown)
VH: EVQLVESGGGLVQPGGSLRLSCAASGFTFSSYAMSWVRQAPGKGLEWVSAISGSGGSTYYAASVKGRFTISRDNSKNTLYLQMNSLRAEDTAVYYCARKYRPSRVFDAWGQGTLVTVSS
VL: B1 VL with A94S
B39: CM-58 (antibody, human IgG4 S228P, lambda, V domains shown)
VH: B2 VH with V33A, Y59W
VL: B1 VL with A92I
B40: CM-42 (antibody, human IgG4 S228P, lambda, V domains shown)
VH: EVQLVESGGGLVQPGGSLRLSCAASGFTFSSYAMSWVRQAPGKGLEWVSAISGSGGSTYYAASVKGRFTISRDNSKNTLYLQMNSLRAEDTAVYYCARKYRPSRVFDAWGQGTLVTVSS
VL: B1 VL with A51S, A92I, A94S
B41: CM-48 (antibody, human IgG4 S228P, lambda, V domains shown)
VH: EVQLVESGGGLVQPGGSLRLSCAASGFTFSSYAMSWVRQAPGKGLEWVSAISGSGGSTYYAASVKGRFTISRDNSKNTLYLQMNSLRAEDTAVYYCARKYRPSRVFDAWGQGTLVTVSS
VL: B1 VL with Y31F, A51S, A92I, A94S

Where a chain is given by its changes, count along the chain named.

The assay deals with T1, human S100A8/A9 heterodimeric antigen, …. The assay can be described thus: cell-based or functional assay.
Turning to B1, the “Relative IC50 (IC50 relative to CM-1), IL-6 release from hS100A8/A9-activated human PBMCs” value (“Relative IC50” below) was 0.679 relative to CM-1.
The value for B2 was 1.58 relative to CM-1; that for B3 was 1.23 relative to CM-1; that for B4 was 0.618 relative to CM-1.
With B5, the “Relative IC50” value is 0.639 relative to CM-1.
For the molecule B6, the “Relative IC50” value was 0.936 relative to CM-1.
To B7 belongs 1.95 relative to CM-1; to B8, 1.16 relative to CM-1; to B9, 1.12 relative to CM-1.
To B10 belongs 1.19 relative to CM-1; to B11, 0.997 relative to CM-1.
Turning to B12, the “Relative IC50” value is 1.55 relative to CM-1.
Take B13: the “Relative IC50” value is 1.11 relative to CM-1.
With B14, the “Relative IC50” value is 1.52 relative to CM-1.
To B15 belongs 0.617 relative to CM-1; to B16, 2.85 relative to CM-1; to B17, 0.5 relative to CM-1.
The value for B18 was 0.703 relative to CM-1; that for B19 was 2.12 relative to CM-1; that for B20 was 1.51 relative to CM-1.
For the molecule B21, the “Relative IC50” value is 0.694 relative to CM-1.
As for B22, the “Relative IC50” value is 0.548 relative to CM-1.
The value for B23 was 1.04 relative to CM-1; that for B24 was 2.09 relative to CM-1; that for B25 was 1.33 relative to CM-1.
Consider B26, for which the “Relative IC50” value is 2.51 relative to CM-1.
The value for B27 was 0.695 relative to CM-1.
As for B28, the “Relative IC50” value was 1.44 relative to CM-1.
To B29 belongs 1.93 relative to CM-1; to B30, 0.923 relative to CM-1.
B31: the “Relative IC50” value is 0.633 relative to CM-1.
For the molecule B32, the “Relative IC50” value is 0.357 relative to CM-1.
The value for B33 was 0.99 relative to CM-1; that for B34 was 0.943 relative to CM-1; that for B35 was 1.78 relative to CM-1.
Consider B36, for which the “Relative IC50” value was 2.18 relative to CM-1.
To B37 belongs 1.67 relative to CM-1.
As to B38, the “Relative IC50” value is 1.99 relative to CM-1.
Take B39: the “Relative IC50” value was 1.52 relative to CM-1.
For the molecule B40, the “Relative IC50” value is 0.866 relative to CM-1.
To B41 belongs 1.58 relative to CM-1.
